Our source for the binding score values is publication PMC10720262 (2023).

B1: CL-509370 (antibody, V domains shown)
VH: QVQLVESGGGVVQPGRSLRLSCAASGFTFSSYGMHWVRQAPGKGLEWVAVIWYDGSNKFYADSVKGHFTISRDNSKNTLYLQMNSLRAEDTAVYYCARDGRDLRGTGPYFDPWGQGTLVTVSS
VL: EIVMTQSPATLSVSPGERAILSCRASQSVSSNLAWYQQKPGQAPRLLIYGASIRATGIPARFRGSGSGTEFTLTISILQSEDFAVYYCQQYNNWITFGQGTRLEIK
modifications: peptides N-terminally acetylated and C-terminally amidated
B2: CL-513041 (antibody, V domains shown)
VH: QEHLVESGGGVVQPGRSLRLSCAASGFTFSNSGMHWVRQAPGKGLEWVAVIWYDGSNKFYADSVRGRFTISRDNSNNTLYLQMNSLRAEDTALYYCARDRLFSGSWNWFDPWGQGTLVTVSS
VL: EIVLTQSPATLSLSPGERATLSCRASQSVSTYLAWYQQKPGQAPRLLIYDASNRATGIPARFSGSGSGTDFTLTISSLEPEDFAVYYCQQRSNWFTFGGGTKVEIK
modifications: peptides N-terminally acetylated and C-terminally amidated
B3: CL-440582 (antibody, V domains shown)
VH: QVQLVESGGGVVQPGRSLRLSCAASGFTLNNYGIHWVRQAPGKGLEWLSLIWYDGSNKFYADSVKGRFTVSRDNSQNTVSLHMSSLSVDDTAVYYCARPGIGVPGDKYTMDVWGQGTTVTVSS
VL: DIQMTQSPSTLSASVGDRVTITCRASQTISAWLAWYQQKLGKAPKILIYKASILESGVPSRFSGSGSGTEFTLTINSLQPDDFATYYCQQYNYDWTFGQGTKVEIN
modifications: peptides N-terminally acetylated and C-terminally amidated
B4: CL-531912 (antibody, V domains shown)
VH: LVQLVESGGGVVQPGRSLRLSCAASGFTFSSSGMHWVRQAPGKGLEWVAIIWYDGSNKFYADSVKGRFTISRDNSKNTLYLQMNSLRAEDTAVYYCARAYVSGSHGDKYGMDVWGQGTTVTVSS
VL: DIQMTQSPSTLSASVGDRVTITCRASQSISSWLAWFQQKPGKAPKLLIYKASSLESGVPSRFSGSGSGTEFTLTINSLQPDDFATYFCQQYNNYWTFGQGTKVEIK
modifications: peptides N-terminally acetylated and C-terminally amidated
B5: CL-445635 (antibody, V domains shown)
VH: QVQLVESGGAVVQPGTSLRLSCAASGFTFSNYGMHWVRQAPGKGLQWVALIWYNGNNKFYAESVEGRFIISRDNSKNILFLQMNSLSAEDTAVYYCARAFYYDSGNYLDYWGPGSLVTVSS
VL: DIQMTQSPSSVSASVGDRVTITCRARQDISSRLAWYQQKPGKAPKILIYGASSLQSGVPSRFSASGSGTDFTLTISSLQPEDFATYYCQQANSFPWTFGQGTKVEIK
modifications: peptides N-terminally acetylated and C-terminally amidated
B6: CL-531237 (antibody, V domains shown)
VH: QVQLVESGGGVVQPGTSLRLSCVASGFTFSNFGIHWFRQAPGKGLEWVSLIWYDGKNKFYAESVTGRFTISRDNSKNTVYLQMSSLRAEDTAVYYCARSYYYDSGNYFDYWGQGTLVTVSS
VL: DIQMTQSPSSVSASVGDRITITCRASQGISSRLAWFQQKPGKAPNFLIYGTSSLQSGVPSRFSGSGSGTDFTLTISSLQPEDSATYYCQQANSYPWTFGQGTKVEIK
modifications: peptides N-terminally acetylated and C-terminally amidated
B7: CL-459404 (antibody, V domains shown)
VH: QVQLVASGGGVVQPGRSLRLSCAASGFTFSNYGMHWVRQAPGKGLEWVAIIWYDGSKKYYSDSVKGRFTISRDNSKNTLNLQMNSLRAEDTAVYYCARAYGSGSYSDDYYGMDVWGQGTTVTVSS
VL: DIQMTQSPSTLSASVGDRVTITCRASQSISPWLAWFQQKPGKAPKLLIYKASNLESGVPSRFSGSGSGTEFTLTISSLQPDDFATYYCQQYYTYWTFGQGTKVEIK
modifications: peptides N-terminally acetylated and C-terminally amidated
B8: CL-444639 (antibody, V domains shown)
VH: QVQLVESGGGVVQPARSLRLSCAASGFTFSSYGMHWVRQAPGKGLEWVAVIWYDGSNKYYADSVKGRFTISRDNSKNTLYLQMNSLRAEDTAVYYCAKVGDFYGSGSYPHYYGMDVWGQGTTVTVSS
VL: not shown
modifications: peptides N-terminally acetylated and C-terminally amidated
B9: CL-512469 (antibody, V domains shown)
VH: QMQLVESGGGVVQPGRSLTLSCEASGFTFSNYGMHWVRQAPGKGLEWVAIIWFDGSHRFYADAVEGRFTISRDNSKNTLFLQMTSLRAEDAAVYYCARVGQFSSSSWGAFDIWGQGTVVTVSS
VL: EIVLTQSPGTLSLSPGESVTLSCRASQIISNTHLAWYQQKPGQAPSLLIYGASSRATGIPDRFSGSGSGTDFTLTISRLEPEDFAVYYCQQYGRLWTFGQGTKVEIK
modifications: peptides N-terminally acetylated and C-terminally amidated

In the assay the target is PfCSP full length (Plasmodium falciparum (isolate NF54), UniProt P19597). Briefly: ELISA AUC.
Sequence of PfCSP full length (P19597 20-375): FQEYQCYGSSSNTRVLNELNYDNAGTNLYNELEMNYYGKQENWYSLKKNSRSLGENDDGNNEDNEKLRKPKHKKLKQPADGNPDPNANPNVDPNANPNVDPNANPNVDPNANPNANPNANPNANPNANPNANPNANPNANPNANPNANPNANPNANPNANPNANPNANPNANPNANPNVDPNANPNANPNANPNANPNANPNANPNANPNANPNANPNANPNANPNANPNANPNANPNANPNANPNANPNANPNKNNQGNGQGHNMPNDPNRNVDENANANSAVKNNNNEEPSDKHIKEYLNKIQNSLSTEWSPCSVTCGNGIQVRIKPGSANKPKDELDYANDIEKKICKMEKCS
Regarding B1, the binding score amounted to 2.09.
For B2 the value was 2.13; for B3, 2.6.
The figure for B4 is 2.64; for B5 it is 2.4; for B6 it is 2.18.
For B7 the value was 2.4.
B8 came in with a binding score of 2.4.
Take B9: the binding score came to 1.99.
